Holding throughout (experiment): SPR, Biacore T200, antibody captured on Protein A chip, 3-fold analyte series 0-100 nM, 37 C, 1:1 model; average ± as printed
Background: In SPR one partner is held on a chip, and binding of the other changes the refractive index at the surface.

The target of test [1] is T1, recombinant cynomolgus monkey αvβ8 protein (PARS-19393) (cynomolgus monkey, UniProt A0A2K5WCD3 31-992; G7P0S0 43-684).
T1 construct: also called cyno.aVb8-19393; cyno.aVb8
The protocol: (§1) The ability of the anti-αVP8-65 to bind to different αVβ8 proteins was assessed using SPR measurements (Karlsson et al. 1991) on a Biacore™ T200 (Cytiva Life Sciences; Marlborough, MA) instrument (Safsten et al. 2006). anti-αV08-65 was first captured on a Biacore™ Protein A biosensor chip (Cytiva Life Sciences) to achieve approximately 60 response units. Binding measurements were performed using a running buffer composed of 10 mM HEPES (pH 7.4), 150 mM NaCl, 0.5 mM CaCl₂), 0.5 mM MgCl₂, and 0.005% Surfactant P20 (Cytiva Life Sciences). A 3-fold dilution series of the analyte proteins (range, 0-100 nM in running buffer) was injected into the Biacore™ T200. All injections were performed over 180 seconds, with a dissociation time of 1200 seconds, at a flow rate of 100 μL/minute and a temperature of 37° C. Between sample injections, 10 mM glycine (pH 1.5) was injected to regenerate the sensor chip (twice, over 30 seconds at 10 μL/minute for each injection). To determine the binding kinetics and affinity constants of anti-αVP8-65 to the various species of the αVβ8 protein, the signal from the reference flow cell (FC1, with only protein A on the surface) was “double referenced” by subtracting the signal observed after injecting the sample over FC1, followed by subtracting the signal observed after injecting only running buffer. The kinetic constants were calculated using non-linear regression fitting of the data, according to a 1:1 Langmuir binding model, using Biacore™ Evaluation Software (Cytiva Life Sciences) for anti-αVP8-65 binding to recombinant human, cynomolgus monkey, mouse, and rat αVβ8 proteins.

Test [2] concerns the target T2, recombinant rat αvβ8 protein (PARS-22180) (rat, UniProt F1LZX9 31-987; A0A0G2JVU1 43-682).
T2 construct: also called rat.aVb8
The protocol: as §1

The target of test [3] is T3, recombinant mouse αvβ8 protein (PARS-17103) (murine, UniProt P43406 31-988; Q0VBD0 43-681, limits assumed).
T3 construct: Made in house; also called mu.aVb8.17103
The protocol: as §1

Test [4] has as its target T4, recombinant human αvβ8 protein (PARS-17102) (human).
T4 construct: also called hu.aVb8.17102; not shown: C-terminal acid/basic coils and any purification tags
T4 alpha: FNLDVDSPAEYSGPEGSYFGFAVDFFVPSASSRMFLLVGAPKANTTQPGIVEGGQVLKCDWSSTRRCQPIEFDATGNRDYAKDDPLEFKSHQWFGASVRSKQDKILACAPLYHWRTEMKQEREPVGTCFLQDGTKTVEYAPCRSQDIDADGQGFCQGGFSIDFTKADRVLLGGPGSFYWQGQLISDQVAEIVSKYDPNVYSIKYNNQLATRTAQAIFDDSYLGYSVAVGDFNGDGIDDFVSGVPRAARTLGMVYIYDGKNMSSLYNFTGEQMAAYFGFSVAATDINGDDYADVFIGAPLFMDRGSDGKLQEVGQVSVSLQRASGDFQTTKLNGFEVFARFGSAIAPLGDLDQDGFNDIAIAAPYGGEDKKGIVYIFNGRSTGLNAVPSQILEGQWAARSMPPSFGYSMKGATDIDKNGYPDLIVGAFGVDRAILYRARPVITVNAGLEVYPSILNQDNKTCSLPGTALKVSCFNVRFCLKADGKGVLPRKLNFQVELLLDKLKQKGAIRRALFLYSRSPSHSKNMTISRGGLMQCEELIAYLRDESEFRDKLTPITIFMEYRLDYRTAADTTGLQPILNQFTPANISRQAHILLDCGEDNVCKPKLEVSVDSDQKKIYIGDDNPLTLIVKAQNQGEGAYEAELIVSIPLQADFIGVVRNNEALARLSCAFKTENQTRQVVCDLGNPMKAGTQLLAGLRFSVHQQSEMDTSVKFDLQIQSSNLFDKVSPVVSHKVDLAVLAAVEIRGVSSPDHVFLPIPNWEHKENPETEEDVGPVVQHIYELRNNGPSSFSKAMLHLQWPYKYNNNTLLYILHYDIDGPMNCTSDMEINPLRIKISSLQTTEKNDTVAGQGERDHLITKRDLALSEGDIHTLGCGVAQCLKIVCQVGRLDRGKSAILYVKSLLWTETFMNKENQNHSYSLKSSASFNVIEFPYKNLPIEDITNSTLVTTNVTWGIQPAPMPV
T4 beta: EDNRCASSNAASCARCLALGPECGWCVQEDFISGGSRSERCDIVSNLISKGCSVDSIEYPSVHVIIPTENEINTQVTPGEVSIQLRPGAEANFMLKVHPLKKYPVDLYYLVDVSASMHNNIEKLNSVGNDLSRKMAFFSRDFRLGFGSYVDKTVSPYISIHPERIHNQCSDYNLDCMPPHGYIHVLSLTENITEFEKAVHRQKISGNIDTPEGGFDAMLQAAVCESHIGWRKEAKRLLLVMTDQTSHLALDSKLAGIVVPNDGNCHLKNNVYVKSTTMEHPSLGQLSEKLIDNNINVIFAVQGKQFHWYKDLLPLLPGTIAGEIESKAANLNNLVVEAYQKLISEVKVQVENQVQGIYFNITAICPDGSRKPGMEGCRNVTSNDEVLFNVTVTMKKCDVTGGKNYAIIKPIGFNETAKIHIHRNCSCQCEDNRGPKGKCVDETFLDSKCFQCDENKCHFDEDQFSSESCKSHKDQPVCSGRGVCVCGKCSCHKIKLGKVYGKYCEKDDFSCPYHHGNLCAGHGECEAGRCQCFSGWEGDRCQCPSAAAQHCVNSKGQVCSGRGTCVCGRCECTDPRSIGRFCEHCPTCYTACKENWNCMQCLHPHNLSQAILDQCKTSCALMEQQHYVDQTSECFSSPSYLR
The method, then:
as §1

The source of these data is patent US20240327522A1 (Genentech, published 2024).

The Kd is the free concentration of one partner at which half of the binding sites on the other are occupied at equilibrium, for simple one-to-one binding. The koff is the rate constant with which the complex falls apart. For orientation: kon means the rate constant with which the complex forms.

T3 sequence (P43406 31-988 limits assumed, chain 1 of 2): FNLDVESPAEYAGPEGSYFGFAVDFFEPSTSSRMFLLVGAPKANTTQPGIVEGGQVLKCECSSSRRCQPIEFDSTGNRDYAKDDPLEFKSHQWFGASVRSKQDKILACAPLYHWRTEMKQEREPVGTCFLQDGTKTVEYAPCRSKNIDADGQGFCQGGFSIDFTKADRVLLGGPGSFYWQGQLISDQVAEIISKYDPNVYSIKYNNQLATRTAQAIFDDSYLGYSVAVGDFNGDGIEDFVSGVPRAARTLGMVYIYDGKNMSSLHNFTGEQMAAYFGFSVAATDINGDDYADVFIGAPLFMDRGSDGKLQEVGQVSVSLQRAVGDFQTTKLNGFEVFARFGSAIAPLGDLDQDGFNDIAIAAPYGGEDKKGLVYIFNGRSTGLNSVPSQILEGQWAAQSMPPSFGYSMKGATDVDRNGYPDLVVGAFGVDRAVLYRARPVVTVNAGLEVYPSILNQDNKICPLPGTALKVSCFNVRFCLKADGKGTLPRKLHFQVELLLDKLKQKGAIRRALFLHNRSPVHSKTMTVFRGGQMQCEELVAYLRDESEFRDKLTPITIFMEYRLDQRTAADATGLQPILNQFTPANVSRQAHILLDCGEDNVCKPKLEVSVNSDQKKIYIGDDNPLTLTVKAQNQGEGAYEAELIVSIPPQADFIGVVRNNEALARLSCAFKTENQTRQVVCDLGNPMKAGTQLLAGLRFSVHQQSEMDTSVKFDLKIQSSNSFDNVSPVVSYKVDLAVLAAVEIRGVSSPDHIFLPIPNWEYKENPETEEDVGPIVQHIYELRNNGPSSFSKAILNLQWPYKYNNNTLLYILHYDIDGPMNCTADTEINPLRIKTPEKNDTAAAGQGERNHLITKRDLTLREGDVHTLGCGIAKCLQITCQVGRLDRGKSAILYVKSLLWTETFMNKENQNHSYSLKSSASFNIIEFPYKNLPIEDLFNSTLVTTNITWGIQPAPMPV
T3 sequence (Q0VBD0 43-681 limits assumed, chain 2 of 2): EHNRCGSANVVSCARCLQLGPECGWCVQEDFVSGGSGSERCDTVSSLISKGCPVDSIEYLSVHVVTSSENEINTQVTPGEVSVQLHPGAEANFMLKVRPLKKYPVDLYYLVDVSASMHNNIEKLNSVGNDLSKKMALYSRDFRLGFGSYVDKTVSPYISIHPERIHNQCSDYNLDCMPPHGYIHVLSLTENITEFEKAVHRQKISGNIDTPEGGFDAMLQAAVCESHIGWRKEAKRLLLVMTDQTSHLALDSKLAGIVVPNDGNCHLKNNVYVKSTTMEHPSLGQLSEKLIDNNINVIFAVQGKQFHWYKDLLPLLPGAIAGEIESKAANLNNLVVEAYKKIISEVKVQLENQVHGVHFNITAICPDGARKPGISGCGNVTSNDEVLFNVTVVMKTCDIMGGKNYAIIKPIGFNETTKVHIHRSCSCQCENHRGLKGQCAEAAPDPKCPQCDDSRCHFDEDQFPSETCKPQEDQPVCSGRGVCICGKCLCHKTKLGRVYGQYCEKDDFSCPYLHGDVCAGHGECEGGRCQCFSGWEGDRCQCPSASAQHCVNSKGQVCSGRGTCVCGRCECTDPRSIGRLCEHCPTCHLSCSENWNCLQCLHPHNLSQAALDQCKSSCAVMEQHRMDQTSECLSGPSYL

B1: Hu.aVb8-65.H15L2 (aVb8-65.H15L2.hIgG1.LALAPG) (antibody, V domains shown)
VH: EVQLLESGGGLVQPGGSLRLSCAASGIDLSNYAMIWVRQAPGKGLEWVGIISSSDRIWYASWVKGRFTISRDNSKNTLYLQMNSLRAEDTAVYYCSRSVSNSYFDGWNLWGQGTLVTVSS
VL: DIQMTQSPSSVSASVGDRVTITCQASENINSLLAWYQQKPGKAPKLLIYRASTLASGVPSRFSGSGSGTDFTLTISSLQPEDFATYYCQSNYGFTGSGAFFYGFGQGTKVEIKR
notes: Human IgG1 LALAPG; also called PARS-20475-65 (IH) aVb8-65.H15L2.hIgG1.LALAPG; humanized αvβ8-65
As for B1, the dissociation constant Kd is 700 pM in test [1], 1000 pM in test [2], 940 pM in test [3] and 500 pM in test [4]. Also, the koff in test [1] is 0.00013 s⁻¹; in test [2], 0.00011 s⁻¹; in test [3], 0.000108 s⁻¹; in test [4] it was 8.8e-05 s⁻¹. Besides, the on-rate constant (kon) came out at 180000 M⁻¹ s⁻¹ in test [1], 104000 M⁻¹ s⁻¹ in test [2], 140000 M⁻¹ s⁻¹ in test [3] and 175000 M⁻¹ s⁻¹ in test [4].
